Experimental data as given in doi:10.1101/2024.02.12.579961 (bioRxiv, 2024).

B1: MBP-tagged IAA19/MSG2, recombinant (natural protein, Arabidopsis thaliana, UniProt O24409 1-197, looked up)
chain: MEKEGLGLEITELRLGLPGRDVAEKMMKKRAFTEMNMTSSGSNSDQCESGVVSSGGDAEKVNDSPAAKSQVVGWPPVCSYRKKNSCKEASTTKVGLGYVKVSMDGVPYLRKMDLGSSQGYDDLAFALDKLFGFRGIGVALKDGDNCEYVTIYEDKDGDWMLAGDVPWGMFLESCKRLRIMKRSDATGFGLQPRGVDE
B2: MBP-tagged IAA3/SHY2 (wild type), recombinant (natural protein, Arabidopsis thaliana, UniProt Q38822 1-189, looked up)
chain: MDEFVNLKETELRLGLPGTDNVCEAKERVSCCNNNNKRVLSTDTEKEIESSSRKTETSPPRKAQIVGWPPVRSYRKNNIQSKKNESEHEGQGIYVKVSMDGAPYLRKIDLSCYKGYSELLKALEVMFKFSVGEYFERDGYKGSDFVPTYEDKDGDWMLIGDVPWEMFICTCKRLRIMKGSEAKGLGCGV

Target: the molecule itself
Test: non-reducing SDS-PAGE

Row | Protein | binding result
1 | B1 | binds
2 | B2 | binds
